Test results as given in patent US20260103503A1.

What was measured:
Tm NY-ESO (human) [1] = assay: flow cytometry, tetramer staining of transduced CD8+ T cells; nt control Q1 0.084
Tm NY-ESO (human) [2] = assay: flow cytometry, tetramer staining of transduced CD4+ T cells; nt control Q2 0.56
Tm NY-ESO (human) [3] = assay: flow cytometry, tetramer staining of transduced CD4+ T cells; nt control Q1 0.020
Tm NY-ESO (human) [4] = assay: flow cytometry, tetramer staining of transduced CD8+ T cells; nt control Q2 0.79
[5] = molecular target: NY-ESO-1 peptide on HLA-A*02:01 (human); assay: SPR as tabulated in Table 2 (BIAcore analysis); reference TCR; soluble, other

Q1 (Tm NY-ESO+ CD8-), percent of cells (Tm NY-ESO (human) [1]) [%] | Q2 (Tm NY-ESO+ CD4+), percent of cells (Tm NY-ESO (human) [2]) [%] | Q1 (Tm NY-ESO+ CD4-), percent of cells (Tm NY-ESO (human) [3]) [%] | Q2 (Tm NY-ESO+ CD8+), percent of cells (Tm NY-ESO (human) [4]) [%] | Kd [5] [µM] | koff [5] [s⁻¹] | kon [5] [M⁻¹ s⁻¹] | Substance
2.53 | 63.2 | 0.89 | 64.9 | – | – | – | 1G4LY TCR on transduced T cells
– | – | – | – | 14.2 | 0.12 | 17000 | 1G4
